Numbering of substitutions follows the chain as printed. Read-outs that look alike come from different tables or passages of the source. Values belong to the binder of their own block, whether it stands above or below them.
Columns and labels:
[1] = molecular target: T1, rhNR10 (recombinant human NR10) (human, UniProt Q8NI17 20-519, limits assumed); experiment: SPR, Biacore T100; antibody captured on Protein A, rhNR10 as analyte
T1 construct: also called IL-31 receptor; IL31RA
T1 sequence: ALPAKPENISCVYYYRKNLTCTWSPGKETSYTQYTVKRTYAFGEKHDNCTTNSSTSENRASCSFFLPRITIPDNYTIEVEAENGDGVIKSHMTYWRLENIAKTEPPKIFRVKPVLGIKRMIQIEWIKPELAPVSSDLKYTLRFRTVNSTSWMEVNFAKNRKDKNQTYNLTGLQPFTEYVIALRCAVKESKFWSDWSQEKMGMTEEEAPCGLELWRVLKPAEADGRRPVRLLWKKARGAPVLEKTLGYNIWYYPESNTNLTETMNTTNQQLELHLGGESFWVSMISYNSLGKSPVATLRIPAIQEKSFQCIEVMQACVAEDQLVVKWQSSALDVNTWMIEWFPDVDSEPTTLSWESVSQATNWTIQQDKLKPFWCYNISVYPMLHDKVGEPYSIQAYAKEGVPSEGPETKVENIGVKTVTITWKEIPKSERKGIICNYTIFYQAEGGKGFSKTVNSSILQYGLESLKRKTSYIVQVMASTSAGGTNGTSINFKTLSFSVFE
Method: (§1) Kinetic analysis of the antigen-antibody reaction was carried out using Biacore T100 (GE Healthcare Biosciences). The antigen-antibody interaction was measured by immobilizing rec-Protein A (hereinafter Protein A) (ZYMED) onto a sensor chip, capturing an antibody on the immobilized Protein A, and then reacting the antigen as an analyte. Various concentrations of rhNR10 were used as the antigen. The kinetic parameters, association rate constant kₐ (1/Ms) and dissociation rate constant kd (1/s), were calculated from the sensorgrams obtained by the measurement. Then, KD (M) was determined based on the rate constants. Each parameter was determined using Biacore T100 Evaluation Software version 1.1 (GE Healthcare Biosciences).
(§2) The running buffer used was HBS-EP+. Each antibody was prepared at 0.25 μg/ml, or prepared so that about 100 RU would bind to Protein A. rhNR10 used as an analyte was prepared at 0, 38.5, 77.0, and 154 nM, or at 0, 19.25, and 77.01 nM using HBS-EP+. In the measurement, first, the antibody solution was captured on Protein A, and an analyte solution was reacted at a flow rate of 20 μL/min for three minutes. Then, the solution was switched to HBS-EP+, and the dissociation phase was measured for five minutes. After measurement of the dissociation phase, the sensor chip was regenerated by washing with 10 mM glycine-HCl (pH 1.5). The obtained sensorgrams were kinetically analyzed using the Biacore-specific data analysis software, Biacore T100 Evaluation Software Version 1.1.

[2] = molecular target: T2, cytoplasmic domain-lacking human NR10 on CHO cells (hNR10-expressing CHO cells) (human, UniProt Q8NI17 20-553); experiment: FMAT competition on hNR10-expressing CHO cells: antibody titrated against FMAT Blue-labeled hIL-31; FL1 = cell-bound labeled hIL-31; mean±S.D. (n=3)
T2 construct: also called NR10-expressing cells
T2 sequence: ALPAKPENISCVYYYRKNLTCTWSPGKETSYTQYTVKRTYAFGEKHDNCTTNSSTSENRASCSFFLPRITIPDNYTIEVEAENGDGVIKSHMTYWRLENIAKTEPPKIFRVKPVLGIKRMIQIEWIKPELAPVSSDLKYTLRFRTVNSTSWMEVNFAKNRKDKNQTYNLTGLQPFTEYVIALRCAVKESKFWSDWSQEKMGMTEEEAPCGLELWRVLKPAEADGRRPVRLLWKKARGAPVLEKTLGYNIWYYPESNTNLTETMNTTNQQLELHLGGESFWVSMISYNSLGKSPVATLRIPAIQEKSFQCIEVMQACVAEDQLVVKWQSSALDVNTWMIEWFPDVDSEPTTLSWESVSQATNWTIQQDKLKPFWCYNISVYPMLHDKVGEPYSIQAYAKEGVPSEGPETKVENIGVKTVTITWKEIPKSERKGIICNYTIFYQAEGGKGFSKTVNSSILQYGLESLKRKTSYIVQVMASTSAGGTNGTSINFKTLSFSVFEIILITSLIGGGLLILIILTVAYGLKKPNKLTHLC
Method: Antibodies were assessed for the activity of inhibiting the IL-31/NR10 binding by using hNR10-expressing CHO cells as described below. The chimeric NS22 antibody and NS22_H0L0 (H chain, H0-SKSC/SEQ ID NO: 54; L chain, L0/SEQ ID NO: 56) were diluted at an appropriate concentration using Assay buffer (10 mM HEPES, 140 mM NaCl, 2.5 mM CaCl₂, 3 mM MgCl₂, 2% FBS, 0.01% NaN₃, pH7.4), and further eight serial dilutions were prepared at a common dilution ration of 2. The dilutions were added at 40 μl/well to plates (96-Well FMAT Plates, Applied Biosystems). Then, FMAT Blue-labeled hIL-31 was diluted 400 times with Assay buffer, and added at 20 μl/well. Finally, a cell suspension adjusted to 2.5×10⁵ cells/ml using Assay buffer was added at 40 μl/well (final 1×10⁴ cells/well). Two hours after addition of cells, the fluorescence (FL1) was measured using the 8200 Cellular Detection System (Applied Biosystems).
Each variant was tested for the activity of inhibiting the hIL-31/hNR10 binding by using FMAT. The test was carried out according to the method as described in Example 4.

[3] = molecular target: T1, rhNR10 (recombinant human NR10); experiment: SPR, Biacore T100; antibody captured on Protein A, rhNR10 as analyte; remark: listed apart in the source
Method: as §1, §2

[4] = molecular target: T1, rhNR10 (recombinant human NR10); experiment: as above; remark: listed apart in the source
Method: as §1, §2

[5] = molecular target: T1, rhNR10 (recombinant human NR10); experiment: as above; remark: listed apart in the source
Method: as §1, §2

[6] = molecular target: T3, soluble human FcRn (FcRn extracellular domain / beta2-microglobulin complex) (human, UniProt P55899 24-290; P61769 21-119); experiment: SPR, Biacore 3000; antibody captured on chip, soluble human FcRn as analyte, steady state affinity, pH 6.0
T3 construct: The expression constructs contain the signal regions (FcRn Met1-Leu290; beta2-microglobulin Met1-Met119); also called hFcRn
Method: The binding to human FcRn was assessed using Biacore 3000. An antibody was bound to Protein L or rabbit anti-human IgG Kappa chain antibody immobilized onto a sensor chip, human FcRn was added as an analyte for interaction with the antibody, and the affinity (KD) was calculated from the amount of bound human FcRn. Specifically, Protein L was immobilized onto sensor chip CM5 (BIACORE) by the amine coupling method using 50 mM Na-phosphate buffer (pH 6.0) containing 150 mM NaCl as the running buffer. Then, an antibody was diluted with the running buffer containing 0.02% Tween20, and injected and allowed to bind to the chip. Human FcRn was then injected to assess the binding activity of the antibody to the human FcRn.
The affinity was calculated using BIAevaluation software. The obtained sensorgram was used to calculate the amount of hFcRn bound to the antibody immediately before the end of human FcRn injection. This was fitted by the steady state affinity method to calculate the affinity of human FcRn for the antibody.

Kd [1]: 0.5 nM
koff [1]: 0.00029 s⁻¹
kon [1]: 580000 M⁻¹ s⁻¹
B1: Ha401La402 (Ha401-SKSC / La402) (antibody, V domains shown)
VH: QVQLVQSGAEVKKPGASVKVSCKASGYTFTGYVINWVRQAPGQGLEWMGLINPYNGGTDYNQKFKGRVTITADESTSTAYMELSSLRSEDTAVYYCARDGYDDGPYTMDYWGQGTLVTVSS
VL: DIQMTQSPSSLSASVGDRVTITCQTSENIYRFVAWYQQKPGKAPKLLIYNAKTLAKGVPSRFSGSGSGTDFTLTISSLQPEDFATYYCQHHYDSPLTFGGGTKVEIKR

binding result [2]: binds
B2: Hp8 variant of H0L0 (antibody, V domains shown)
VH: B1 VH with V33I, I34M, N52D, D59S
VL: DIQMTQSPSSLSASVGDRVTITCRTSENIYSFLAWYQQKPGKAPKLLIYNAKTLAKGVPSRFSGSGSGTDFTLTISSLQPEDFATYYCQHHYESPLTFGGGTKVEIK

binding result [2]: binds
B3: Hp7 variant of H0L0 (antibody, V domains shown)
VH: B1 VH with V33I, I34M, L50E, D59S
VL: B2 VL

Kd [3]: 2.1 nM
koff [3]: 0.00081 s⁻¹
kon [3]: 390000 M⁻¹ s⁻¹
B4: H0L17 (H0-M58 / L17) (antibody, V domains shown)
VH: B1 VH with V33I, I34M, D59S
VL: B1 VL with T25A, N28D, R31S, K52Q, L54E, K56Q

IC50 (read off the curve) [2]: ~0.1 µg/mL
B5: Hp9 variant of H0L0 (antibody, V domains shown)
VH: B1 VH with V33I, I34M, D59S, K63Q
VL: B2 VL

binding result [2]: binds
B6: Lp3 variant of H0L0 (antibody, V domains shown)
VH: B1 VH with V33I, I34M, D59S
VL: B2 VL with N50D

binding result [2]: binds
B7: Lp4 variant of H0L0 (antibody, V domains shown)
VH: B1 VH with V33I, I34M, D59S
VL: B2 VL with K52Q

binding result [2]: binds
B8: Lp2 variant of H0L0 (antibody, V domains shown)
VH: B1 VH with V33I, I34M, D59S
VL: B2 VL with N28D

binding result [2]: binds
B9: Lp1 variant of H0L0 (antibody, V domains shown)
VH: B1 VH with V33I, I34M, D59S
VL: B2 VL with R24Q

IC50 (read off the curve) [2]: ~0.1 µg/mL
B10: Hp6 variant of H0L0 (antibody, V domains shown)
VH: B1 VH with V33I, I34M, D59S, Q62D
VL: B2 VL

binding result [2]: binds
B11: Hp5 variant of H0L0 (antibody, V domains shown)
VH: B1 VH with V33I, I34M, R38Q, A40S, D59S
VL: B2 VL

binding result [2]: binds
B12: Lp7 variant of H0L0 (antibody, V domains shown)
VH: B1 VH with V33I, I34M, D59S
VL: B2 VL with L54E

Kd [4]: 0.62 nM
koff [4]: 0.00026 s⁻¹
kon [4]: 430000 M⁻¹ s⁻¹
B13: H17L11 (H17-M58 / L11) (antibody, V domains shown)
VH: B1 VH with I34L, Q62P, K63Q, K65Q, G66D
VL: B1 VL with N28D, K52Q, L54E, K56Q

Kd [5]: 5.1 nM
koff [5]: 0.0012 s⁻¹
kon [5]: 230000 M⁻¹ s⁻¹
B14: H19L12 (H19-M58 / L12) (antibody, V domains shown)
VH: B1 VH with V33A, I34M, Q62P, K63Q, K65Q, G66D
VL: B1 VL with N28D, R31S, K52Q, L54E, K56Q

fold affinity relative to H0L0 [5]: ~2 fold
Kd [3]: 2 nM
koff [3]: 0.00074 s⁻¹
kon [3]: 380000 M⁻¹ s⁻¹
B15: H0L12 (H0-M58 / L12) (antibody, V domains shown)
VH: B1 VH with V33I, I34M, D59S
VL: B1 VL with N28D, R31S, K52Q, L54E, K56Q

binding result [2]: binds
B16: Hp13 variant of H0L0 (antibody, V domains shown)
VH: B1 VH with V33I, I34M, D59S, K65Q, G66D
VL: B2 VL

Kd [5]: 3.9 nM
koff [5]: 0.0016 s⁻¹
kon [5]: 420000 M⁻¹ s⁻¹
B17: Hp3Lp15 (Hp3-SKSC / Lp15) (antibody, V domains shown)
VH: B1 VH with V33I, I34M, D59S, K63Q, K65Q, G66D
VL: B1 VL with N28D, R31S, V33L, K52Q, L54E, K56Q, D93E
notes: also called Hp3Lp15-SKSC

Kd [6]: 1070 nM
B18: H0L0-IgG1 (antibody)
heavy: not shown
light: DIQMTQSPSSLSASVGDRVTITCRTSENIYSFLAWYQQKPGKAPKLLIYNAKTLAKGVPSRFSGSGSGTDFTLTISSLQPEDFATYYCQHHYESPLTFGGGTKVEIKRTVAAPSVFIFPPSDEQLKSGTASVVCLLNNFYPREAKVQWKVDNALQSGNSQESVTEQDSKDSTYSLSSTLTLSKADYEKHKVYACEVTHQGLSSPVTKSFNRGEC

From patent US20110129459A1 (Chugai, published 2011)
